Results published in publication PMC11719512, “Exploring the Binding Mechanism of ADGRG2 Through Metadynamics and Biochemical Analysis” (International Journal of Molecular Sciences, 2024).
Changes are numbered by the printed parent chain. Numbers in names are those of the source.

What was measured:
ADGRG2 [1] = conditions: cited from earlier work; for activity on ADGRG2 (agonist or antagonist): steroid hormones, endogenous, ref [23]
Source text: Stachel (sequence: TSFGILLDLSRTSLP, with individual residues numbered from ss01 to ss15, where “ss” denotes Stachel sequence) is a key functional element of ADGRG2, playing a critical role in regulating the conformation and function of the receptor [8]. The Stachel sequence plays a pivotal role in receptor activation by mediating ligand binding and initiating the conformational changes required for signal transduction, highlighting its biological significance. In previous studies, the wild-type ADGRG2 Stachel sequence-derived peptidic agonist, VPM, was found t ... || Figure 1 Structural and binding analysis of ADGRG2 with agonists and antagonists. (A) Structure of ADGRG2, highlighting key domains involved in ligand binding. Identified agonists (DHEA, DHEAS, IP15) and antagonists (DOC, F601D, F601E) are labeled. […] (B) Schematic representation of metadynamics simulations and ligand binding assay conducted to investigate the binding mechanisms of antagonists F601D, F601E, and DOC to ADGRG2. (C) Structural representation of ADGRG2 in complex wi ...

DOC = assay: BRET-based binding assay; conditions: parent: est. -7.3; read off a plot
ADGRG2 [2] = assay: cAMP accumulation assay (GloSensor) with wild-type ADGRG2 and mutants; type: cell-based; conditions: HEK293, GloSensor; agonist IP15 alone, then with antagonist; mean ± SEM, n = 3
Protocol: To assess the cAMP accumulation induced by receptor activation, HEK293 cells were transfected with plasmids for wild-type ADGRG2 or its mutants (ADGRG2-T624A, ADGRG2-C628A, ADGRG2-N668A, ADGRG2-Y758A, ADGRG2-K760A, ADGRG2-D768A, ADGRG2-N773A, ADGRG2-N775A, ADGRG2-N849A, ADGRG2-N860A) alongside the GloSensor plasmid or an empty vector (pcDNA3.1). Following a 24-h incubation at 37 °C with 5% CO2, the transfected cells were plated at a density of 4 × 10^4 per well in 96-well plates and incubated for an additional 24 h. The cells were then pre-treated with serum-free medium containing 5% (v/v) GloSensor cAMP reagent stock solution for 2 h. cAMP signals induced by IP15 were measured immediately after adding the agonists. Luminescence was recorded for at least 20 min per well, and the data were analyzed using sigmoidal dose–response functions in GraphPad Prism v.9.0.

[3] = system: ADGRG2 (Nluc-ADGRG2 and its alanine mutants); assay: FlAsh-BRET / BRET-based ligand binding assay with ADGRG2 mutants; conditions: HEK293, competition with 50 μM IP15–FITC, 10^−9 to 10^−4 M competitor, HBSS, 40 min at 37 °C; mean ± SEM, n = 3
Protocol: HEK293 cells were transiently transfected with plasmids for Nluc-ADGRG2 and its various mutants (ADGRG2-T624A, ADGRG2-C628A, ADGRG2-N668A, ADGRG2-Y758A, ADGRG2-K760A, ADGRG2-D768A, ADGRG2-N773A, ADGRG2-N775A, ADGRG2-N849A, ADGRG2-N860A). The cells were plated at a density of 3 × 10^4 per well in a black 96-well plate and cultured for 48 h at 37 °C with 5% CO2. To assess saturation binding, increasing concentrations of FITC-labeled IP15 (IP15–FITC) were added, alongside or without 300 μM of unlabeled IP15, for a 40-min incubation at 37 °C. For competitive binding assays, cells were treated with 50 μM IP15–FITC and varying concentrations (10^−9 to 10^−4 M) of competing peptides in HBSS buffer (containing 25 mM HEPES, 10 mM glucose, 146 mM NaCl, 5 mM KCl, 1 mM MgSO4, 2 mM sodium pyruvate, and 1.3 mM CaCl2) for 40 min at 37 °C. Coelenterazine H (final concentration of 5 μM, Promega) was added just before measuring BRET signals using a Mithras LB 940 Multimode Microplate Reader. Light emissions were recorded at 460 nm (80 nm bandpass) and 535 nm (60 nm bandpass) for IP15–FITC, and the raw BRET ratio was calculated as the 535 nm emission divided by the 460 nm emission.

VPM-F601E, Q8CJ12 = target: T1, VPM-F601E, Q8CJ12; assay: BRET-based binding assay; conditions: chain shown with the change;, read off a plot
T1 chain: TSEGILLDLSRTSLP

VPM-F601D, Q8CJ12 = target: T2, VPM-F601D, Q8CJ12; assay: BRET-based binding assay; conditions: chain shown with the change;; parent: est. -8.0; read off a plot
T2 chain: TSDGILLDLSRTSLP

For C[C@]12CC[C@H](O)CC1=CC[C@@H]1[C@@H]2CC[C@]2(C)C(=O)CC[C@@H]12 [DHEA, dehydroepiandrosterone], the “activity on ADGRG2 (agonist or antagonist)” value (from here on “activity on ADGRG2”) (ADGRG2 [1]) is listed as “endogenous agonists”.

In the case of “Nluc-ADGRG2 (wild type) (from UniProt Q8CJ12) D768A”, the IC50 (DOC) is reported as -5.9 log10(M).

For “Nluc-ADGRG2 (wild type) (from UniProt Q8CJ12) K760A”, the IC50 (DOC) was -5.6 log10(M).

For C[C@]12CC[C@H](OS(=O)(=O)O)CC1=CC[C@@H]1[C@@H]2CC[C@]2(C)C(=O)CC[C@@H]12 [DHEAS], the “activity on ADGRG2” value (ADGRG2 [1]) is listed as “endogenous agonists”.

In the case of IS 4PH GILLDLSRTSLP [IP15], the “agonistic activity / receptor state stabilised” value (ADGRG2 [1]; Stachel-derived peptides, earlier work, ref [8],[11]) is given as “superior agonistic activity” and the “IP15-induced cAMP accumulation, effect of ADGRG2 mutations” value (ADGRG2 [2]) is given as “the effects of these mutations are specific to the antagonists and not due to disruption of interactions between receptor residues that contribute to agonist-induced activation”.

In the case of deoxycorticosterone [DOC], the “activity on ADGRG2” value (ADGRG2 [1]) is given as “endogenous antagonist” and the “binding to ADGRG2 with mutated polar residues (C628, N668, K760, D768, N860)” value [3] is given as “significantly weakened DOC’s ability to bind to ADGRG2”.

B1: Nluc-ADGRG2 (wild type), Q8CJ12 Y758A (protein)
chain: LKENGNSSLLSPSAESSLVSLIPYSNGTPDAASEVLSTLNKTEKSKITIVKTFNASGVKSQRNICNLSSLCNDSVFFRGEIVFQHDEDHNVTQNQDTANGTFAGVLSLSELKRSELNKTLQTLSETYFIVCATAEAQSTVNCTFTVKLNETMNVCAMMVTFQTVQIRPMEQCCCSPRTPCPSSPEELEKLQCELQDPIVCLADQPHGPPLSSSSKPVVPQATIISHVASDFSLAEPLDHALMTPSTPSLTQESNLPSPQPTIPLASSPATDLPVQSVVVSSLPQTDLSHTLSPVQSSIPSPTTPAPSVPTELVTISTPPGETVVNTSTVSDLEAQVSQMEKALSLGSLEPNLAGEMVNRVSKLLHSPPALLAPLAQRLLKVVDAIGLQLNFSSTTISLTSPSLALAVIRVNASNFNTTTFAAQDPTNLQVSLETPPPENSIGAITLPSSLMNNLPANDVELASRIQFNFFETPALFQDPSLENLTLISYVISSSVTNMTIKNLTRNVTVALKHINPSPDDLTVKCVFWDLGRNGGKGGWSSDGCSVKDKRMNETICTCSHLTSFGILLDLSRTSLPPSQMMALTFITYIGCGLSSIFLSVTLVTYIAFEKIRRDYPSKILIQLCAALLLLNLIFLLDSWIALYNTRGFCIAVAVFLHYFLLVSFTWMGLEAFHMYLALVKVFNTYIRKYILKFCIVGWGIPAVVVSIVLTISPDNYGIGSAGKFPNGTPDDFCWINSNVVFYITVVGYFCVIFLLNVSMFIVVLVQLCRIKKKKQLGAQRKTSIQDLRSIAGLTFLLGITWGFAFFAWGPVNVTFMYLFAIFNTLQGFFIFIFYCAAKENVRKQWRRYLCCGKL
With B1 the IC50 (VPM-F601E, Q8CJ12; parent: est. -8.5) was -7.1 log10(M).

B2: Nluc-ADGRG2 (wild type), Q8CJ12 N849A (protein)
chain: B1 chain with A721Y, N812A
With B2 the IC50 (VPM-F601D, Q8CJ12) was -7.9 log10(M).

B3: Nluc-ADGRG2 (wild type), Q8CJ12 N775A (protein)
chain: B1 chain with A721Y, N738A
For B3, the IC50 (VPM-F601D, Q8CJ12) was -7.6 log10(M) and the IC50 (VPM-F601E, Q8CJ12; parent: est. -8.1) was -5.4 log10(M).

B4: Nluc-ADGRG2 (wild type), Q8CJ12 N773A (protein)
chain: B1 chain with A721Y, N736A
With B4 the IC50 (VPM-F601D, Q8CJ12) was -6.2 log10(M).

B5: Nluc-ADGRG2 (wild type), Q8CJ12 K760A (protein)
chain: B1 chain with A721Y, K723A
With B5 the IC50 (VPM-F601D, Q8CJ12) was -7.7 log10(M) and the IC50 (VPM-F601E, Q8CJ12; parent: est. -8.5) was -7 log10(M).
